Square brackets hold non-standard residues; d marks the D form. Peptide text beside a SMILES is read from it. * marks the point of attachment. Oic = O=C(O)[C@@H]1C[C@@H]2CCCC[C@@H]2N1; Cha = N[C@@H](CC1CCCCC1)C(=O)O; Tle = CC(C)(C)[C@H](N)C(=O)O; Nicotinoyl = O=C(c1cccnc1)*; Acm = CC(=O)NC*
Experiments:
rhEphB4 = biological target: T1, rhEphB4 (Homo sapiens, UniProt P54760); assay: SPR binding to immobilized rhEphB4 (Biacore 3000)
T1 construct: purchased R&D Systems, Inc., Minneapolis, Minn
T1 sequence (P54760 16-987): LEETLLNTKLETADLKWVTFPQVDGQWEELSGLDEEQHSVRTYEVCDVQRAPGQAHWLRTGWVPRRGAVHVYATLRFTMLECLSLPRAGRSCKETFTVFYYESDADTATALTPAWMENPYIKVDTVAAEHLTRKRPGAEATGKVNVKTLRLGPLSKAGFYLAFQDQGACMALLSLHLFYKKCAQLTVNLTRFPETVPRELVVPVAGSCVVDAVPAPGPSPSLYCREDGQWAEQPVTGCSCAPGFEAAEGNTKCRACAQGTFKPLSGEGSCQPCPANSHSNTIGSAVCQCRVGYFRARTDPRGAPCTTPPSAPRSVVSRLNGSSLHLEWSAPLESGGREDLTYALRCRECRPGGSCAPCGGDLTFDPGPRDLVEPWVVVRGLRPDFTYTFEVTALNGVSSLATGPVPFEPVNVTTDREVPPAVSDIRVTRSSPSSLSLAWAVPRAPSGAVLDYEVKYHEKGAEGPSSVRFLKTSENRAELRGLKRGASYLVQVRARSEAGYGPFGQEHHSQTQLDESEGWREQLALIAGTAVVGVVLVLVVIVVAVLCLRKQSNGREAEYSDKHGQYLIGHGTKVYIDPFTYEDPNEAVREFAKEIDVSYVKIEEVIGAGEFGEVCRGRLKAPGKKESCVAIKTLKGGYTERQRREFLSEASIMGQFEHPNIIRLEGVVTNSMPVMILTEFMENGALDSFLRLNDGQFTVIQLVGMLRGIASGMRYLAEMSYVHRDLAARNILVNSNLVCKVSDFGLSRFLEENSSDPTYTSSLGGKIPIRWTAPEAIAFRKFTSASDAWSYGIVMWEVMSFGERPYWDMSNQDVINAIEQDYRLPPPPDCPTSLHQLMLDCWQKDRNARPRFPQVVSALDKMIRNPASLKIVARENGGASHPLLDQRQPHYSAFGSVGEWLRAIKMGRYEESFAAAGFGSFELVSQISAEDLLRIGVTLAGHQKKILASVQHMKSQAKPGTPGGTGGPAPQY
Experimental: (§1) Binding to selected ephrin receptors was measured by surface plasmon resonance on a Biacore3000 instrument. Commercially available ephrin receptors: EphA2, EphB2 and EphB4 (R&D Systems) were immobilized on a CM-5 chip by amine coupling and tested peptides were passed over a chip surface as analytes.
(§2) Binding studies. Binding studies were performed by surface plasmon resonance (SPR) on a BIAcore 3000 system (BiaCore AB, Piscataway, N.J.). BIAcore CM5 sensor chips were utilized in all experiments. Binding studies were performed in HBS-EP running buffer (pH=7.4) containing 10 mM HEPES, 150 mM NaCl, 3 mM EDTA, and 0.005% polysorbate 20. Commercially available ephrin receptors: EphA2, EphB2 and EphB4 (R&D Systems, Inc., Minneapolis, Minn.) were immobilized on a CM5 sensor chip using the amine coupling method. The chip was activated by mixing 400 mM N-ethyl-N-(3-dimethylaminopropyl)-carbodiimide hydrochloride and 100 mM N-hydroxysuccinimide. Residual reactive groups on the chip surface were blocked using 1.0 M ethanolamine/HCl (pH=8.5). The flow cell-1 chip, which served as a control, lacked immobilized protein but was treated with N-ethyl-N-(3-dimethylaminopropyl)-carbodiimide hydrochloride, N hydroxysuccinimide, and ethanolamine/HCl. Binding signals were corrected for nonspecific binding by subtracting the flow cell-1 signal (blank surface). To regenerate chip surfaces, bound ligands were removed with 10 mM HCl. Data were analyzed with BIAevaluation 4.1 software (Biacore, Piscataway, N.J.).

in vitro = settings: for peptide concentration remaining in human serum ± SEM (AUC): 37° C.
Experimental: Serum stability. Human blood serum was prepared using BD Vacutainer→Rapid Serum Tubes (RST) (BD Diagnostics, Franklin Lakes, N.J.) according to manufacturer's recommendations. Serum was harvested and either used fresh or stored at −80° C. Stability of the AzV36-NicL in the human serum was determined as previously described. Briefly, 50 μl of an aqueous peptide stock solution (10 mg/ml) was added to 1.95 ml of 25% pooled, non-heat inactivated human serum in PBS and incubated at 37° C. […] The resulting mixtures were kept at 5° C. for 10 min and then centrifuged at 300 g for 5 min. 100 μl of the supernatants were analyzed using analytical ProStar 210 HPLC system with a ProStar 325 Dual Wavelength detector set at 220 nm and 280 nm (Varian Inc., Palo Alto, Calif.). The mobile phases were: Solvent A, 0.1% TFA (trifluoroacetic acid) in water; solvent B, 0.1% TFA in acetonitrile. Experiments were performed using Vydac 218TP54 C18 column, 4.6×250 mm, 5 μM (Grace Vydac, Hesperia, Calif.) in a linear 0 to 100% gradient of solvent B applied over 100 min at 1 ml/min.

[1] = MultiTox-Fluor Multiplex Cytotoxicity Assay, RAW 264.7 cells; type: cell-based; settings: mouse, 24 h co-culture, read-out: LD50, RAW cells
Experimental: (§3) Experiments were carried out using MultiTox-Fluor Multiplex Cytotoxicity Assay (Promega Corp., Madison, Wis.) as previously described. This assay simultaneously measures the number of live and dead cells in culture wells based on the activity of two proteases, one a marker of cell viability, and the other a marker of cytotoxicity, which yield products with different excitation and emission spectra. Briefly, for cytotoxicity experiments murine LCC (or RAW 264.7) cells were plated in a 96-well plate at a density of 1×10^4 cells/well in a total volume of 50 μl of culture media and treated with various concentrations of tested peptides (50 μl of 0-400 μM peptides in culture media). Cells' viability was assessed 24 h later by MultiTox-Fluor Multiplex Cytotoxicity Assay (incubation time 1 h). For cell viability experiments, LCC cells were plated in a 96-well plate at a density of 5×10^3 cells/well in a total volume of 50 μl of culture media and treated with various concentrations of tested peptide (50 μl of 0-200 μM peptide in culture media) for 1 hour prior to 0, 2, 4 Gy irradiation. Cell viability was assessed 72 h later by MultiTox-Fluor Multiplex Cytotoxicity Assay (incubation time 1 h). All experiments were carried out in triplicates.

[2] = MultiTox-Fluor Multiplex Cytotoxicity Assay, LLC cells; type: cell-based, murine; settings: mouse, Lewis lung carcinoma (LLC) cells; 24 h co-culture; read-out: LD50, LLC cells
Experimental: as §3

rhEphB2/Fc = rhEphB2/Fc (Homo sapiens, UniProt P29323); assay: SPR binding to immobilized rhEphB2/Fc (Biacore 3000); design: Fc; purchased R&D Systems, Inc., Minneapolis, Minn
Experimental: as §1, §2

rhEphA2 = rhEphA2 (Homo sapiens, UniProt P29317); assay: SPR binding to immobilized rhEphA2 (Biacore 3000); design: purchased R&D Systems, Inc., Minneapolis, Minn
Experimental: as §1, §2

[3] = human, 25% pooled, non-heat inactivated human serum in PBS

For `CC(=O)NCSC[C@H](NC(=O)[C@H](CC1CCCCC1)NC(=O)[C@H](CC1CCCCC1)NC(=O)[C@@H](CCCCNC(=O)c1cccnc1)NC(=O)[C@@H](N)Cc1ccc(O)cc1)C(=O)N[C@H](C(=O)N[C@@H](CC1CCCCC1)C(=O)N1[C@H](C(=O)N[C@H](CCCNC(=N)N)C(=O)N[C@@H](Cc2c[nH]cn2)C(=O)N[C@@H](CCCNC(=N)N)C(=O)N[C@H](C(=O)N[C@@H](CC2CCCCC2)C(=O)N[C@@H](CSCNC(C)=O)C(=O)N[C@H](CCCCN)C(N)=O)[C@@H](C)O)C[C@@H]2CCCC[C@@H]21)C(C)(C)C` [AzV36-NicL, YkNic-Cha-Cha-Cam-Tle-Cha-Oic-rHRT-Cha-Cam-k-CONH] (H-Y[dK](Nicotinoyl)[Cha][Cha]C(Acm)[Tle][Cha][Oic][dR]HRT[Cha]C(Acm)[dK]-NH2), the Kd (rhEphB4) was 5.83 ± 1.4 nM, the “peptide concentration remaining in human serum ± SEM (AUC)” value (in vitro; 24 h, 25% human serum in PBS) was 100±0.64% and the “peptide concentration remaining in human serum ± SEM (AUC)” value (in vitro; 6 days) was 97.8±2.86%. It also gave a remaining at 24 h, 0.25 mg/ml (in vitro; [3]) of 100 ± 0.64%, a remaining at 144 h, 0.25 mg/ml (in vitro; [3]) of 97.8 ± 2.86% and a CC50 at 24 h [1] of 10.3 ± 0.78 µM. It also gave a CC50 at 24 h [2] of 17 ± 2.84 µM, a Kd (rhEphB2/Fc) of 14.3 ± 3.3 nM and a Kd (rhEphA2) of 13.9 ± 2.9 nM.
